These results are taken from IntAct's records for PubMed 11932251.

The assay addresses T1, ranb3_human RANBP3 (UniProt Q9H6Z4).
T1 sequence: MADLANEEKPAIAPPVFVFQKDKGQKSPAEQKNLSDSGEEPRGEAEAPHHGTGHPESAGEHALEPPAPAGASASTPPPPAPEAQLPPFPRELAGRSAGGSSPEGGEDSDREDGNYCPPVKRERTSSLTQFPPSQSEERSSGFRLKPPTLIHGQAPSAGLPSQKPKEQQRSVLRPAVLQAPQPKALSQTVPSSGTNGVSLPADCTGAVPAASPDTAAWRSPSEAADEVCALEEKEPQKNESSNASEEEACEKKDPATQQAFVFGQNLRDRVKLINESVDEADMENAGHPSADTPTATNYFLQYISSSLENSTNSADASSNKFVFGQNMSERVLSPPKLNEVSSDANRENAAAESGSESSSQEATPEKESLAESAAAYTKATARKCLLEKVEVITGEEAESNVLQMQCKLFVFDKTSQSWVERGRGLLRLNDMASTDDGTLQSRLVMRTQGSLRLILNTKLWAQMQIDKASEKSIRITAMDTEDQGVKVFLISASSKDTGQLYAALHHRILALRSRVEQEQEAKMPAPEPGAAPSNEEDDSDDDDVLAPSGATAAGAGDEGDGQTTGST

With “GTP-binding nuclear protein Ran (Homo sapiens) (from UniProt P62826) Q69L”, the “effect of a mutation on the interaction” value is given as “increasing interaction”.
